This experiment addresses T1, ofd1_human OFD1 (UniProt O75665).
T1 sequence: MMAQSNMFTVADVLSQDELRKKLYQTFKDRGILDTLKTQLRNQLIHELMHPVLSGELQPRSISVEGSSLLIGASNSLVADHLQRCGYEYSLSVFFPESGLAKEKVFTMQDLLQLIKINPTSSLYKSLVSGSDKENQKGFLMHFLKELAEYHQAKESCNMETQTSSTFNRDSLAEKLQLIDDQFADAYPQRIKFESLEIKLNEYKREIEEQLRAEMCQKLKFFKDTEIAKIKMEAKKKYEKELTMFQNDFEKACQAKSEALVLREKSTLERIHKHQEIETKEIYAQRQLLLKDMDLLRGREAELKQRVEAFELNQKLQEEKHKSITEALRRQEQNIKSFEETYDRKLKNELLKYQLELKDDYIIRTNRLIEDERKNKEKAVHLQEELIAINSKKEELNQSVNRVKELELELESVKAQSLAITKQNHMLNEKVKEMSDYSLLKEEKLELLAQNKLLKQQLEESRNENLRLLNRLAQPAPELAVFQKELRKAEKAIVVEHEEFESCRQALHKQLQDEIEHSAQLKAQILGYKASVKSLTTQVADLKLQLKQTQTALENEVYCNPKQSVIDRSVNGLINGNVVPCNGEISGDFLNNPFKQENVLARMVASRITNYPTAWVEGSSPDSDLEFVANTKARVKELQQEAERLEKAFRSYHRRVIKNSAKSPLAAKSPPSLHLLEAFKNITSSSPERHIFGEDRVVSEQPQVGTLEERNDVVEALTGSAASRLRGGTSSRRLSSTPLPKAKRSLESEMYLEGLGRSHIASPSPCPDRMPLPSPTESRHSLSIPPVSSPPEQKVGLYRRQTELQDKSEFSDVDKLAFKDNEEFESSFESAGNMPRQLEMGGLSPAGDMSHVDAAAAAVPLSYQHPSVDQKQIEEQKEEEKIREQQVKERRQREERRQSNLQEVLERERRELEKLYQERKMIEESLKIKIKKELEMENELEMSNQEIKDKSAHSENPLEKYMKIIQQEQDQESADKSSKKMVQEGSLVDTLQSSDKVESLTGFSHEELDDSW

Regarding “Microtubule-associated protein 1 light chain 3 beta (Homo sapiens) (from UniProt Q9GZQ8) F52A;L53A”, the “effect of a mutation on the interaction” value is listed as “disrupting interaction”.
